# Measured values reported in patent US20180030098A1 (NAVIGO PROTEINS, published 2018).
# B1: Affilin 138838 (designed binder)
# chain: MQIFVYTNTGKTITLEVEPSDTIENVKAKIQDKEGIPPDQQRLIWAGKQLEDGRTLSDYNIRNPDILHLVLRLRAAGIGMQIFVHTITGKTITLEVEPSDTIENVKAKIQDKEGIPPDQQRLIWAGKQLEDGRTLSDYNIEGERDLHLVLRLRAA
# notes: Affilin of two ubiquitin moieties with PDI motif
# Molecular target: T1, Recombinant human EGFR-Fc Chimera (R&D Systems, catalog no. 344-ER-050) (human, UniProt P00533 25-645)
# T1 construct: range 1-645; Bought reagent; Immobilised on the CM5 chip for SPR; also called hEGFR-Fc; not shown: Fc region of human IgG1, fused at the C-terminus
# Assay: SPR (Biacore) on immobilised hEGFR-Fc
binder,measurement,value
B1,Kd,615 nM
